Publication PMC6011931, “Substrate scope of a dehydrogenase from Sphingomonas species A1 and its potential application in the synthesis of rare sugars and sugar derivatives” (Microbial Biotechnology, 2018)

Assays:
Test in all cases: purified protein
Details in all cases: oxidation, 1 mM NAD+, 50 mM ammonium bicarbonate pH 7.9, 25 °C
[1] = substrate: O=C(O)[C@@H](O)[C@@H](O)[C@H](O)[C@H](O)CO
[2] = substrate: O=C(O)[C@@H](O)[C@H](O)[C@H](O)[C@H](O)CO
[3] = substrate: O=C(O)[C@H](O)[C@@H](O)[C@H](O)[C@H](O)CO
[4] = substrate: O=C(O)[C@H](O)[C@H](O)[C@H](O)[C@H](O)CO
[5] = substrate: O=C(O)C(=O)C[C@H](O)[C@H](O)CO; format: biochemical, Sphingomonas sp. A1
[6] = substrate: O=C(O)[C@@H](O)[C@@H](O)[C@@H](O)[C@H](O)CO; format: biochemical, Sphingomonas sp. A1
[7] = substrate: O=C(O)[C@@H](O)[C@@H](O)[C@H](O)CO; format: biochemical, Sphingomonas sp. A1
[8] = substrate: O=C(O)[C@@H](O)[C@H](O)[C@H](O)CO; format: biochemical, Sphingomonas sp. A1
[9] = substrate: O=C(O)[C@H](O)[C@@H](O)[C@@H](O)[C@H](O)CO; format: biochemical, Sphingomonas sp. A1
[10] = substrate: O=C(O)[C@H](O)[C@@H](O)[C@H](O)CO; format: biochemical, Sphingomonas sp. A1
[11] = substrate: O=C(O)[C@H](O)[C@H](O)[C@H](O)CO; format: biochemical, Sphingomonas sp. A1
[12] = substrate: OCC(O)CO; format: biochemical, Sphingomonas sp. A1

B1: SpsADH (Sphingomonas sp. A1) (protein)
chain: MFSDLKGKRILITGSTEGIGMATAIELARYGAVVGLNSHVDPADPALLLGKLREAGGDGAFFRADITKTAECQRLVSAFVERFDGIDVLINNAGGLAGRSNLENIDDAFYDRVMDLNGRSVLMMTKFAIPHLRASAKASGTTSAVISTGSIAAREGGGIGAGVYAASKAWLHDIHRNWVKEFTKDSIRFNIVAPGTVDTAFHADKSDELKTRIANSIPMGRFGTVQELAPAYVFFASHAASGYITGQILDVNGGQICP
notes: full length (258 residues), codon-optimised synthetic gene, N-terminal His6-tag kept (pET-28a), E. coli BL21(DE3), 29 500 Da; NAD+-dependent isoenzyme (printed locus SPH3227 may belong to the NADP+-dependent isoenzyme)
Km [1]: 14 ± 1 mM
Vmax [1]: 1.1 µmol/min/mg
kcat [1]: 0.53 s⁻¹
kcat/Km [1]: 38 M⁻¹ s⁻¹
Km [2]: 24 ± 4 mM
Vmax [2]: 0.39 µmol/min/mg
kcat [2]: 0.19 s⁻¹
kcat/Km [2]: 8 M⁻¹ s⁻¹
Km [3]: 12 ± 1 mM
Vmax [3]: 2 µmol/min/mg
kcat [3]: 0.98 s⁻¹
kcat/Km [3]: 82 M⁻¹ s⁻¹
Km [4]: 16 ± 2 mM
Vmax [4]: 0.36 µmol/min/mg
kcat [4]: 0.18 s⁻¹
kcat/Km [4]: 11 M⁻¹ s⁻¹
Km [5]: 13 ± 3 mM
Vmax [5]: 2.8 µmol/min/mg
kcat [5]: 1.4 ± 0.08 s⁻¹
kcat/Km [5]: 100 ± 30 M⁻¹ s⁻¹
Km [6]: 6 ± 1 mM
Vmax [6]: 0.042 µmol/min/mg
kcat [6]: 0.021 ± 0.001 s⁻¹
kcat/Km [6]: 3.4 ± 0.9 M⁻¹ s⁻¹
Km [7]: 27 ± 2 mM
Vmax [7]: 0.0086 µmol/min/mg
kcat [7]: 0.0042 ± 0.0001 s⁻¹
kcat/Km [7]: 0.16 ± 0.02 M⁻¹ s⁻¹
Km [8]: 27 ± 3 mM
Vmax [8]: 0.01 µmol/min/mg
kcat [8]: 0.0048 ± 0.0001 s⁻¹
kcat/Km [8]: 0.18 ± 0.02 M⁻¹ s⁻¹
Km [9]: 50 ± 5 mM
Vmax [9]: 0.016 µmol/min/mg
kcat [9]: 0.0079 ± 0.0003 s⁻¹
kcat/Km [9]: 0.16 ± 0.02 M⁻¹ s⁻¹
Km [10]: 24 ± 2 mM
Vmax [10]: 0.066 µmol/min/mg
kcat [10]: 0.032 ± 0.002 s⁻¹
kcat/Km [10]: 1.4 ± 0.2 M⁻¹ s⁻¹
Km [11]: 16 ± 1 mM
Vmax [11]: 0.01 µmol/min/mg
kcat [11]: 0.0052 ± 0.0001 s⁻¹
kcat/Km [11]: 0.33 ± 0.03 M⁻¹ s⁻¹
Km [12]: 100 ± 10 mM
Vmax [12]: 0.011 µmol/min/mg
